Among the data in publication PMC9674853, “Biasing the conformation of ELMO2 reveals that myoblast fusion can be exploited to improve muscle regeneration” (Nature Communications, 2022) are Kd values, retold here.

In this experiment the target is T1, murine ELMO2 full-length, wild type (mouse, UniProt Q8BHL5 1-732).
T1 construct: ELMO2, murine cDNA cloned into pGEX4T1; called full-length in the ITC methods; Thrombin was added to the glutathione eluates overnight before size exclusion; also called ELMO2 WT; WT ELMO2; source: E. coli BL21 codon+, purified (glutathione resin, thrombin, S75 size exclusion)
T1 sequence (looked up): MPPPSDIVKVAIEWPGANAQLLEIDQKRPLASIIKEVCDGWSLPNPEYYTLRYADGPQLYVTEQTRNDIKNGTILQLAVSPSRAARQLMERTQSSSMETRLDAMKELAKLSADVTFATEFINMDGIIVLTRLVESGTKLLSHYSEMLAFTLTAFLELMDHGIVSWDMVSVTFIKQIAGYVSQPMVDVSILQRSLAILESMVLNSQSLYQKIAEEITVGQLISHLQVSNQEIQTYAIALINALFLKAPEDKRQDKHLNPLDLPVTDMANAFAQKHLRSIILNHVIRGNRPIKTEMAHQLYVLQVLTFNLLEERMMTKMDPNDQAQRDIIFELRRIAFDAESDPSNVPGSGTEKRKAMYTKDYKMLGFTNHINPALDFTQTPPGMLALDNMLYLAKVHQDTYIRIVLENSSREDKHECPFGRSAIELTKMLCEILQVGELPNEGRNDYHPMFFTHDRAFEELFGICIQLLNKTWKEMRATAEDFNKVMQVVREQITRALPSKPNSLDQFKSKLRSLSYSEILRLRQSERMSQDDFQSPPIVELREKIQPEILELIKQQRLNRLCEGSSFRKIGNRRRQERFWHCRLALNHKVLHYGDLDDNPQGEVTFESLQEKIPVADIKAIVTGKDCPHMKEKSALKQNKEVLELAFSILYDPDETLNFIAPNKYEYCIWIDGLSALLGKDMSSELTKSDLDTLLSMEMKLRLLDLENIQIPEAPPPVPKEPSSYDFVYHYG
As to the kind of experiment: ITC; 500 μM RHOG titrated into 40 μM Elmo2 full-length (WT or L43A); MicroCal ITC200, 25 °C; 20 mM Tris pH 7.5, 100 mM NaCl, 5 mM MgCl2, 1 mM DTT; one-site binding model. The conditions noted are these: both partners purified.

B1: human RHOG (residues 1-179) (domain or fragment)
chain: not shown
notes: RHOG, human, residues 1-179, cloned into pDEST17 with a thrombin cleavage site between the 6xHIS-tag and the GTPase; For NMR uniformly 15N-labelled (M9 medium with 15NH4Cl) and loaded with GMPPNP; For ITC made in LB; also called RHOG-GMPPNP; HIS-RHOG; source: E. coli BL21 codon+, purified (Ni-NTA, thrombin cleavage, S75 size exclusion)
In turn, B1 showed a Kd of 10.3 µM.
